Measured values taken from PMC3479211.
Values belong to the molecule of their own block, whether it stands above or below them.

Columns and labels:
[1] = target: wild-type His-p32 (mouse) (UniProt O35658); experiment: SEC
[2] = target: mutant His-p32 (K89A/K93A) (mouse) (UniProt O35658); experiment: SEC
p32 (gC1qR) wild-type [3] = target: T1, p32 (gC1qR) wild-type (Mus musculus, UniProt Q8R5L1 72-279); experiment: competition
T1 sequence: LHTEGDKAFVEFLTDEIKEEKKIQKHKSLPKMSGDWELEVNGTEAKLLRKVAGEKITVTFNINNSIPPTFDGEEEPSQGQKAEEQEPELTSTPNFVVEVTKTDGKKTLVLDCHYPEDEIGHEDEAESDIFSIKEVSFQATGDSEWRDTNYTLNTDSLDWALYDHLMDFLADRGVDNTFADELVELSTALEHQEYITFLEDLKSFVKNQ

p32 (gC1qR) wild-type [4] = target: T1, p32 (gC1qR) wild-type; experiment: competition; remark: listed apart in the source
p32 (gC1qR) wild-type [5] = target: T1, p32 (gC1qR) wild-type; experiment: EMSA
p32 (gC1qR) wild-type [6] = target: T1, p32 (gC1qR) wild-type; experiment: EMSA; remark: listed apart in the source

stoichiometry N [1]: 3
Molecule: wild-type His-p32 (from UniProt O35658 71-278) (natural protein)

stoichiometry N [2]: 3
Molecule: mutant His-p32 (K89A/K93A) (from UniProt O35658 71-278) (natural protein)

Molecule: GGGAGAAAAACAAAACAAAACAAAACUAGCACCGUAAAGC (ssRNA) [40-mer RNA (random)]
binding result (p32 (gC1qR) wild-type [3]): binds

Molecule: AAAAAAAAAAAAAAAAAAAAAA (ssDNA) [22-mer poly(A) DNA]
binding result (p32 (gC1qR) wild-type [4]): no binding

Molecule: GUUUACGGUGCUA (ssRNA) [14-mer RNA (random)]
binding result (p32 (gC1qR) wild-type [5]): binds

Molecule: AAAAAAAAAAAAAAAAAAAAAA (ssRNA) [22-mer poly(A) RNA]
Kd (p32 (gC1qR) wild-type [6]): ~6 µM
